Experimental data: the DeepSol protein solubility set

Experiment: soluble on expression in E. coli; label from the status in PepcDB or PDB records

Soluble on expression in E. coli, not soluble:
MSGPVRTRRILEELGPTYIKLGQLLSMRRDLVPLEYAAEFSKLQDDAPSFGFEEVELIIREELGLPVEDLFESFEKKPLACASIGQVHRAKLKNGDDVVVKVQRPGIKEVIESDLDIMYSLSRLLTEHIPEARLYRPVELVDELSRSILAEIDYSQEGWNTDRFAENFKDSEQIHIPKVYWDYTGTRVLTLEYIEGIKGGRVDLLEKLEHHHHHH, MGSDKIHHHHHHMSILNLFRKNKNKNNIDFNEKSNKSKQTSNNTMTPSQEYNSISTHNVEVKNEINKVLNVSYNDTTNLYELEKQAREKSDALYDIHTNSINKFNPQNNILETDTKPLTSIEKSFLKYIIGENIYEPYIATYWTYEYNINYSYLISKFFNMDYLKISNYIEDLTKLTVSELKEILKSNNIKSTGKKAELIERIEKEISCKDLSNFFNSSNKYYALTDKGKELLKDVRKSVTKNTDLEDQCLELIYIDKYEEAYDLICKYESSKNIQRGININWENHKITPMKIESYKAIKELDINLKDTLLDNIIKSSYILCDMLGNNSKTSILVKRLAGEKIDNIEINNAINSINDVIYNHSTITYNANDSINNKNLHYMDIVKNNKSIPFEVNNKNYNFKINENEIYFFNILKIKMYENELKNNFVFDRMSDGAFNVFDTSDNFIGKVKLQGRKKWIMYMKNEFGSEHIYGELIHLIDGIDAWIKYSKEYLK, MAVIRIKKPRGPGEKDQPLEGEPKLKRIRIKTKVTDEDIKPKPKLKINLKKKKESADGKEKKNSLKLKLNLKKNEEPVKKIHKAPKLRLKPIRIPGEAYDSEASDIEDDPLIESGVILRILPDIQLEFVKNSLESGDYSGISIKWKNERHAVVTINDVMYGAILVDLPTVIEVNKSVDRKNLLKTFDVSQMLLCIRPIQEEEEVYALEAPDTEDLVVKHFEGIEDEIWENKETFLKGYNGAPLSDMEAKHLKEIALKGYDYKHGISPPLYNVRNRRFRRKMDPNEIDYVEKVVDMLLKQDKQAEEVSYDLVDKSELQARQERVSSWENFKEEPGEPLSRPALKKEEIHTIASAVGKQGAEEEGEEGMEEEEEEDLDLGAAFESEEEGSGAEGDKEQQQEEVGDEVDQDTGGEDDDDDDDGDIEAAGGESESDDEKDENRQHTELLADELNELETTLAHTKHKLSKATNPLLKSRFIDSIKKLEKEAELKRKQLQQTEDSVQKQHQHRSDAETANNVEEEEEEEEEEEEEDEVDEDEEDDEENDEDEDNVHEREHIQENKVVRELDEAPAEETLDQNDLDMMMLFGAEGDE, MGSDKIHHHHHHMVGNYRGMGRFARQLVEPVGASVLGLAPSGVHADEWPCVSQGHGFFPWWEQVELPRLCREQRLDYLLCPYNTGPLRSTGNTRVVAVIHDLIYMEPWHVLPPARSVYQTVGRVYRRHVVPRLVRRADVVLTVSRFTQRELVKKFELREGDVRVVPCTISDDWFEPPVSRTARQPYLFTVAGEVPSKNVGRLLQAFAIARPALGDDARLRIAGIKAEHHAHFLGLADSLGLTNAVELLGYVSREELREQYRQARAFVFASLFEGFGIPLLEAMASGTPVACSNTTSMPEIAGNCALQFDPRSVEDMAEQIRAIWDDSARFEVALGDGVNRARTYSESAVRPSIEDFWAGLA, MAKVCYFTGRKTVSANNRSHAMNKTKRVAKPNLQKVTVLIDGKPKKVWASARALKSGKVERVLEHHHHHH, MPVLYKPFQSNLEDKKSGKKLFYPHVVRTGNINSAQLSKEIAAYSSLSPGDVKNTLDNLVTVMAQHLQSSESVSVDGLGTFRMVMSARGRGVETADEVSAAQATLTVRFQPTTTKNLDRTTATRSMVTGAKCARYDKLVSAPGDGGSVDDPNDKPGGGSDGGDDGEAPDPTV, MGSDKIHHHHHHMLKFGTAGIPINAKNTESALEYLKEIKLDAMELEFVRGVNLKAEKAESLAKNLKITLSAHAPYYINLNAKEPEKIESSIKRIVDSAKIISIFNKKNSENKNVVFHSGFYLKQDKDLVYEKIKVNIQKILKIMDENKINAILRPETTGKISQFGSIDELIQLSTEIDIMPCIDFSHVYARSLGKINDYDSFSNILSKLENNLGKKGIKDMHIHISGIDFGNGGEKKHFPILNSEFNYMAVLKALKDFECSGTVICESPKLEYDAVILKKNYEEL, MFFSEARARSRTWEASPSEHRKWVEVFKACDEDHKGYLSREDFKTAVVMLFGYKPSKIEVDSVMSSINPNTSGILLEGFLNIVRKKKEAQRYRNEVRHIFTAFDTYYRGFLTLEDFKKAFRQVAPKLPERTVLEVFREVDRDSDGHVSFRDFEYALNYGQKEA
